Measured values from US20190241648A1 (STATEN BIOTECHNOLOGY B V, published 2019).
Ends that are not written are not given here.

Assays:
Test in all cases: peptide microarray
ApoC3 peptide … F61N = target: T1, ApoC3 peptide … F61N (human, not fully specified (bridges); also: cyclic constrained)
T1 peptide: DKNSEFWDLDPEV
Procedure, shortened: (§1)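 ApoC3 peptide microarrays incubated with antibody samples and then stained with goat anti-human IgG (Fc) DyLight680 plus anti-HA DyLight800 control antibody. Scanned at intensity 7/7 (red/green); a secondary-only prestain checked for background, and framing HA peptides served as quality control.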

ApoC3 peptide … S62Y = ApoC3 peptide … S62Y (human, cyclic constrained)
Procedure, shortened: as §1

ApoC3 peptide … D68C = target: T2, ApoC3 peptide … D68C (human, not fully specified (bridges); also: cyclic constrained)
T2 peptide: DKFSEFWDLCPEV
Procedure, shortened: as §1

ApoC3 peptide … K60H = target: T3, ApoC3 peptide … K60H (human, not fully specified (bridges); also: cyclic constrained)
T3 peptide: DHFSEFWDLDPEV
Procedure, shortened: as §1

ApoC3 peptide … F64G = target: T4, ApoC3 peptide … F64G (human, not fully specified (bridges); also: cyclic constrained)
T4 peptide: DKFSEGWDLDPEV
Procedure, shortened: as §1

ApoC3 peptide … V71N = ApoC3 peptide … V71N (human, cyclic constrained)
Procedure, shortened: as §1

ApoC3 peptide … P69Y = ApoC3 peptide … P69Y (human, cyclic constrained)
Procedure, shortened: as §1

ApoC3 peptide … F64P = target: T5, ApoC3 peptide … F64P (human, not fully specified (bridges); also: cyclic constrained)
T5 peptide: DKFSEPWDLDPEV
Procedure, shortened: as §1

ApoC3 peptide … F61A = target: T6, ApoC3 peptide … F61A (human, cyclic constrained)
T6 peptide: DKASEFWDLDPEV
Procedure, shortened: as §1

ApoC3 peptide … D68G = target: T7, ApoC3 peptide … D68G (human, cyclic constrained)
T7 peptide: DKFSEFWDLGPEV
Procedure, shortened: as §1

ApoC3 peptide … E63P = ApoC3 peptide … E63P (human, cyclic constrained)
Procedure, shortened: as §1

ApoC3 peptide … D68I = target: T8, ApoC3 peptide … D68I (human, cyclic constrained)
T8 peptide: DKFSEFWDLIPEV
Procedure, shortened: as §1

ApoC3 peptide … L67H = target: T9, ApoC3 peptide … L67H (human, not fully specified (bridges); also: cyclic constrained)
T9 peptide: DKFSEFWDHDPEV
Procedure, shortened: as §1

ApoC3 peptide … K60A = target: T10, ApoC3 peptide … K60A (human, not fully specified (bridges); also: cyclic constrained)
T10 peptide: DAFSEFWDLDPEV
Procedure, shortened: as §1

ApoC3 peptide … D68M = target: T11, ApoC3 peptide … D68M (human, cyclic constrained)
T11 peptide: DKFSEFWDLMPEV
Procedure, shortened: as §1

ApoC3 peptide … D66I = target: T12, ApoC3 peptide … D66I (human, not fully specified (bridges); also: cyclic constrained)
T12 peptide: DKFSEFWILDPEV
Procedure, shortened: as §1

ApoC3 peptide … D66K = target: T13, ApoC3 peptide … D66K (human, not fully specified (bridges); also: cyclic constrained)
T13 peptide: DKFSEFWKLDPEV
Procedure, shortened: as §1

ApoC3 peptide … E70H = target: T14, ApoC3 peptide … E70H (human, not fully specified (bridges); also: cyclic constrained)
T14 peptide: DKFSEFWDLDPHV
Procedure, shortened: as §1

ApoC3 peptide … F61C = target: T15, ApoC3 peptide … F61C (human, cyclic constrained)
T15 peptide: DKCSEFWDLDPEV
Procedure, shortened: as §1

ApoC3 peptide … E63L = ApoC3 peptide … E63L (human, cyclic constrained)
Procedure, shortened: as §1

ApoC3 peptide … W65R = target: T16, ApoC3 peptide … W65R (human, not fully specified (bridges); also: cyclic constrained, ring type and places not given here)
T16 peptide: DKFSEFRDLDPEV
Procedure, shortened: as §1

ApoC3 peptide … F64S = target: T17, ApoC3 peptide … F64S (human, not fully specified (bridges); also: cyclic constrained)
T17 peptide: DKFSESWDLDPEV
Procedure, shortened: as §1

ApoC3 peptide … F64A = target: T18, ApoC3 peptide … F64A (human, not fully specified (bridges); also: cyclic constrained)
T18 peptide: DKFSEAWDLDPEV
Procedure, shortened: as §1

ApoC3 peptide … D59M = target: T19, ApoC3 peptide … D59M (human, cyclic constrained)
T19 peptide: MKFSEFWDLDPEV
Procedure, shortened: as §1

ApoC3 peptide … D59K = target: T20, ApoC3 peptide … D59K (human, cyclic constrained)
T20 peptide: KKFSEFWDLDPEV
Procedure, shortened: as §1

ApoC3 peptide … E70W = target: T21, ApoC3 peptide … E70W (human, cyclic constrained)
T21 peptide: DKFSEFWDLDPWV
Procedure, shortened: as §1

ApoC3 peptide … S62H = ApoC3 peptide … S62H (human, cyclic constrained)
Procedure, shortened: as §1

ApoC3 peptide … F64N = target: T22, ApoC3 peptide … F64N (human, not fully specified (bridges); also: cyclic constrained)
T22 peptide: DKFSENWDLDPEV
Procedure, shortened: as §1

ApoC3 peptide … F61W = target: T23, ApoC3 peptide … F61W (human, not fully specified (bridges); also: cyclic constrained)
T23 peptide: DKWSEFWDLDPEV
Procedure, shortened: as §1

ApoC3 peptide … D66T = target: T24, ApoC3 peptide … D66T (human, not fully specified (bridges); also: cyclic constrained)
T24 peptide: DKFSEFWTLDPEV
Procedure, shortened: as §1

ApoC3 peptide … D66H = target: T25, ApoC3 peptide … D66H (human, not fully specified (bridges); also: cyclic constrained)
T25 peptide: DKFSEFWHLDPEV
Procedure, shortened: as §1

ApoC3 peptide … V71E = ApoC3 peptide … V71E (human, cyclic constrained)
Procedure, shortened: as §1

ApoC3 peptide … E70M = target: T26, ApoC3 peptide … E70M (human, not fully specified (bridges); also: cyclic constrained)
T26 peptide: DKFSEFWDLDPMV
Procedure, shortened: as §1

ApoC3 peptide … L67D = target: T27, ApoC3 peptide … L67D (human, not fully specified (bridges); also: cyclic constrained)
T27 peptide: DKFSEFWDDDPEV
Procedure, shortened: as §1

ApoC3 peptide … F61I = target: T28, ApoC3 peptide … F61I (human, cyclic constrained)
T28 peptide: DKISEFWDLDPEV
Procedure, shortened: as §1

ApoC3 peptide … D66S = target: T29, ApoC3 peptide … D66S (human, not fully specified (bridges); also: cyclic constrained)
T29 peptide: DKFSEFWSLDPEV
Procedure, shortened: as §1

B1: anti-ApoC3 antibody 6A6 (antibody, V domains shown)
VH: EVQLVESGGGLVQPGGSLRLSCAASGFTFSSYAGRWVRQVPGKGLEWVSSINAGGGSTSYADSVKGRFTISRDNAKNTLYLQMNSLKPEDTAKYYCTQNSYRYWGQGTRVAVSS
VL: DVVLTQTPGSLSVVPGESASISCKASQSLIHTDGKTYLYWLLQKPGQRPQLLIYQVSSHESGVPDRFTGSGSGTDFTLKISGVKAEDAGVYYCAQATYNPRTFGQGTKLEIK
notes: it was detected with goat anti-human IgG (Fc); also called mAb 6A6; llama antibody 6A6
ApoC3 peptide … F61N
  % of binding to wild-type peptide: 48.3%
ApoC3 peptide … S62Y
  % of binding to wild-type peptide: 16.3%
ApoC3 peptide … D68C
  % of binding to wild-type peptide: 5.29%
ApoC3 peptide … K60H
  % of binding to wild-type peptide: 124%
ApoC3 peptide … F64G
  % of binding to wild-type peptide: 168%
ApoC3 peptide … V71N
  % of binding to wild-type peptide: 98.7%
ApoC3 peptide … P69Y
  % of binding to wild-type peptide: 52%
ApoC3 peptide … F64P
  % of binding to wild-type peptide: 285%
ApoC3 peptide … F61A
  % of binding to wild-type peptide: 41.1%
ApoC3 peptide … D68G
  % of binding to wild-type peptide: 0%
ApoC3 peptide … E63P
  % of binding to wild-type peptide: 138%
ApoC3 peptide … D68I
  % of binding to wild-type peptide: 0%
ApoC3 peptide … L67H
  % of binding to wild-type peptide: 7.67%
ApoC3 peptide … K60A
  % of binding to wild-type peptide: 120%
ApoC3 peptide … D68M
  % of binding to wild-type peptide: 0%
ApoC3 peptide … D66I
  % of binding to wild-type peptide: 0%
ApoC3 peptide … D66K
  % of binding to wild-type peptide: 0.33%
ApoC3 peptide … E70H
  % of binding to wild-type peptide: 0.03%
ApoC3 peptide … F61C
  % of binding to wild-type peptide: 20.6%
ApoC3 peptide … E63L
  % of binding to wild-type peptide: 10.1%
ApoC3 peptide … W65R
  % of binding to wild-type peptide: 7.71%
ApoC3 peptide … F64S
  % of binding to wild-type peptide: 196%
ApoC3 peptide … F64A
  % of binding to wild-type peptide: 166%
ApoC3 peptide … D59M
  % of binding to wild-type peptide: 60.2%
ApoC3 peptide … D59K
  % of binding to wild-type peptide: 45.6%
ApoC3 peptide … E70W
  % of binding to wild-type peptide: 2.84%
ApoC3 peptide … S62H
  % of binding to wild-type peptide: 26.5%
ApoC3 peptide … F64N
  % of binding to wild-type peptide: 153%
ApoC3 peptide … F61W
  % of binding to wild-type peptide: 32.9%
ApoC3 peptide … D66T
  % of binding to wild-type peptide: 0%
ApoC3 peptide … D66H
  % of binding to wild-type peptide: 0%
ApoC3 peptide … V71E
  % of binding to wild-type peptide: 228%
ApoC3 peptide … E70M
  % of binding to wild-type peptide: 2.34%
ApoC3 peptide … L67D
  % of binding to wild-type peptide: 2.89%
ApoC3 peptide … F61I
  % of binding to wild-type peptide: 44.3%
ApoC3 peptide … D66S
  % of binding to wild-type peptide: 0%
